Experimental data taken from paper PMC3099715 (The Journal of Biological Chemistry, 2011).
Read-outs that look alike come from different tables or passages of the source. One block for each molecule: values may come before it. No end group written: not given here. fluorescein = fluorescein fluorophore covalently attached to the cysteine residue

Assays:
[1] = target: fluorescein-labeled P5 peptide (F-P5) (chicken); experiment: fluorescence polarisation
[2] = target: fluorescein-labeled P5 peptide (F-P5) (chicken); experiment: fluorescence polarisation; remark: listed apart in the source
[3] = target: fluorescein-labeled Isu1 peptide (F-Isu1) (S. cerevisiae); experiment: fluorescence polarisation
[4] = target: T1, substrate-binding domain of Ssc1, Ssc1(418–654) (S. cerevisiae, UniProt P0CS90 418-654); experiment: fluorescence polarisation
T1 sequence (looked up): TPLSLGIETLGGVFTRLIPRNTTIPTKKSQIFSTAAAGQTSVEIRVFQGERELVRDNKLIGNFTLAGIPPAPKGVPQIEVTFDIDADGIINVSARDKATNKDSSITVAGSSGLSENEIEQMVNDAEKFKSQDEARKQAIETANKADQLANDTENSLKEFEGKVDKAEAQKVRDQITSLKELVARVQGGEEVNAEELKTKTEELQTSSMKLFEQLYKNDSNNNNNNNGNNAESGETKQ

[5] = target: T2, Ssc1 (mitochondrial heat shock protein 70 of Saccharomyces cerevisiae) (S. cerevisiae, UniProt P0CS90 24-654); experiment: fluorescence polarisation
[6] = target: T2, Ssc1 (mitochondrial heat shock protein …); experiment: fluorescence polarisation; remark: listed apart in the source
[7] = target: T2, Ssc1 (mitochondrial heat shock protein …); experiment: fluorescence polarisation; remark: listed apart in the source
[8] = target: T2, Ssc1 (mitochondrial heat shock protein …); experiment: fluorescence polarisation; remark: listed apart in the source
[9] = target: T2, Ssc1 (mitochondrial heat shock protein …); experiment: pull-down

Kd [1]: 26.3 µM | Kd [2]: 30.1 µM | koff [2]: 0.244 s⁻¹ | Kd [3]: > 90 µM
Molecule: Ssc3 (mitochondrial Hsp70 paralog of Saccharomyces cerevisiae) (natural protein)

Kd [4]: 0.264 ± 0.041 µM | koff [5]: 0.003 s⁻¹ | Kd [6]: 0.231 ± 0.014 µM | Kd [7]: 30.9 ± 2.6 µM
Molecule: CALLLSAPRR (fluorescein fluorophore covalently attached to the cysteine residue) [fluorescein-labeled P5 peptide (F-P5)]

Kd [8]: 7.07 ± 0.872 µM
Molecule: LSLPPVKLHC(fluorescein) [fluorescein-labeled Isu1 peptide (F-Isu1)]

More lines, now with the values behind:

Molecule: SBD_(Ssc1)-(ABCD)_(Ssc3) chimera (variable domain of the SBD of Ssc1 replaced with that of Ssc3) (domain or fragment)
Kd [2]: 22.7 µM

B1: GST-Hep1 (yeast Hep1 co-chaperone) (natural protein, yeast (S. cerevisiae), UniProt P42844 48-174, looked up)
chain: NEVKKDDKKVHLGSFKVDKPKMMIAFTCKKCNTRSSHTMSKQAYEKGTVLISCPHCKVRHLIADHLKIFHDHHVTVEQLMKANGEQVSQDVGDLEFEDIPDSLKDVLGKYAKNNSENASQLPHPSQK
Kd [9]: ~1.5 µM
